According to publication PMC7807878, “Development of an engineered peptide antagonist against periostin to overcome doxorubicin resistance in breast cancer” (BMC Cancer, 2021):

Key:
Format in all cases: cell-based
MCF-7 cells [1] = assay: Wound healing migration assay, MCF-7; conditions: rPN 100 ng/ml vs untreated control; P-value = 0.030
Method: (§1) The wound healing assay was performed to determine migration activity of the BCA cells after treatment under various conditions. Briefly, 5 × 10^4 cells of parental BCA cells or mock/PN-transfected cells were seeded in 24-well culture plates with their regular media for 24 h and media changed to 1% FBS with or without rPN (100 ng/ml) and anti-PN peptide (1 μM) and culture continued for 1 day until they reached approximately 95% confluency. Wounds were applied by scratching using 200 μl micropipette tip in a single straight line. The media with floating cells would be removed and refilled with the new experimental media. The culture process would be continued for a further 24 h and photos of the area would be taken at 8 h intervals. The migration area would be analyzed from the photos taken using TScratch version 1.0 software (https://github.com/cselab/TScratch) and migration activity calculated as μm^2/h. Independent duplicated experiments were performed.

[2] = test system: survivin expression in BCA cells; assay: Western blot, survivin expression; conditions: parental BCA cells (MDA-MB-231, MCF-7), PN alone, duplicate experiments
Method: (§2) To determine the secreted PN amount in conditioned-media of each cell, 3 × 10^5 cells were seeded into 6-well plates with 3 ml of complete media. Cell media were removed the next day and washed with phosphate-buffered saline (PBS), and serum free media was added. Media was collected at 24 h, centrifuged and supernatant was taken and concentrated by Vivaspin®6 (VS0691, Sartorius, Goettingen, Germany). Protein concentration was determined by Bradford reagent (#5000006, Bio-Rad Laboratories, Hercules, CA, USA) and the amounts were adjusted to 5 μg per loading. To determine protein expression or phosphorylation in the cellular part, 2 × 10^6 cells were lysed with RIPA buffer (sc-24,948, Santa Cruz Biotechnology, Inc., Dallas, TX, USA). Each sample was separated by sodium dodecyl sulfate (SDS) polyacrylamide gel electrophoresis (PAGE) and transferred to PVDF membrane. […] HRP was detected by Pierce™ enhanced chemiluminescence (ECL) reagent (Thermo Fisher Scientific) and chemiluminescence signal was detected by G:BOX gel documentation system (Syngene, Cambridge, UK). Expression level of PN was determined by ImageJ version 1.52a software (National Institutes of Health, Bethesda, MD, USA).
(§3) Parental BCA cells were treated with PN and anti-PN peptides and the intracellular signaling pathway determined by western blot analysis. Akt phosphorylation and expression of survivin were detected. […]

MDA-MB-231 cells [3] = assay: Proliferation assay (MTS), MDA-MB-231; conditions: rPN 100 ng/ml, 72 h, P-value = 0.004
Method: (§4) The proliferation assay of BCA cells was determined by the cell viability assay using CellTiter 96® Aqueous One Solution Cell Proliferation Assay (MTS assay) (Promega, Madison, WI, USA). Briefly, 3 × 10^3 cells in 100 μl medium were seeded in 96-well plates for 24 h. The day 1 baseline determination used the MTS assay following company instructions. For the experiment, cells were placed into new media containing 2% FBS with or without rPN (100 ng/ml) and anti-PN peptide (1 μM) and cells were cultured for a further 72 h. After treatment, cell viability was measured by the MTS assay. Proliferation rate was calculated as the folding of cell numbers increased from the baseline.

MDA-MB-231 cells [4] = assay: Drug sensitivity (MTS), MDA-MB-231; conditions: doxorubicin treated MDA-MB-231, rPN treatment experiment
Method: (§5) Determination the IC50 of BCA cells in response to chemotherapeutic drugs was analyzed by MTS assay. The experiment started from 5 × 10^3 of BCA cells in 100 μl medium that were seeded in 96-well plates for 24 h, then media was changed with different concentrations of new chemotherapeutic drugs [doxorubicin (S1208), paclitaxel (S1150), cisplatin (S1166), 5-fluorouracil (5-FU) (S1209) and gemcitabine (S1714) that were purchased from Selleck Chemicals, Houston, TX, USA] with or without rPN and anti-PN peptide for a further 48 h. After that, cell viability was determined by the MTS assay. Combination index (CI) was calculated by IC50 of combination of drug and PN or anti-PN peptide divided by IC50 of chemotherapeutic drug alone.
(§6) ANOVA test or Student’s t-test were applied for statistical analysis of the experiments. GraphPad Prism® version 7.04 software (GraphPad Software, San Diego, CA, USA) was used in calculation of IC50 values of chemotherapeutic drugs and PASW Statistics software version 18 (SPSS, IBM, Armonk, NY, USA) was used for other analysis. Dose-responses were compared by Holm-Sidak’s multiple comparison test. Mann-Whitney ranked-sum test was used for comparisons between normal and patient serum PN. Chi-square or Fisher’s exact test were used to determine the correlation between PN expression and clinical data in BCA patients. […]

MDA-MB-231 cells [5] = assay: Wound healing migration assay, MDA-MB-231; conditions: rPN 100 ng/ml vs untreated control; P-value = 0.033
Method: as §1

MCF-7 cells [6] = assay: Drug sensitivity (MTS), MCF-7; conditions: doxorubicin treated MCF-7, rPN treatment experiment
Method: as §5, §6

[7] = test system: Akt phosphorylation (pAKT) in BCA cells; assay: Western blot, Akt phosphorylation; conditions: parental BCA cells (MDA-MB-231, MCF-7), PN alone, duplicate experiments
Method: as §2, §3

MCF-7 cells [8] = assay: Proliferation assay (MTS), MCF-7; conditions: rPN 100 ng/ml, 72 h, not statistically significant
Method: as §4

B1: rPN: recombinant PN (periostin), BioVendor (protein)
chain: NNHYDKILAHSRIRGRDQGPNVCALQQILGTKKKYFSTCKNWYKKSICGQKTTVLYECCPGYMRMEGMKGCPAVLPIDHVYGTLGIVGATTTQRYSDASKLREEIEGKGSFTYFAPSNEAWDNLDSDIRRGLESNVNVELLNALHSHMINKRMLTKDLKNGMIIPSMYNNLGLFINHYPNGVVTVNCARIIHGNQIATNGVVHVIDRVLTQIGTSIQDFIEAEDDLSSFRAAAITSDILEALGRDGHFTLFAPTNEAFEKLPRGVLERIMGDKVASEALMKYHILNTLQCSESIMGGAVFETLEGNTIEIGCDGDSITVNGIKMVNKKDIVTNNGVIHLIDQVLIPDSAKQVIELAGKQQTTFTDLVAQLGLASALRPDGEYTLLAPVNNAFSDDTLSMDQRLLKLILQNHILKVKVGLNELYNGQILETIGGKQLRVFVYRTAVCIENSCMEKGSKQGRNGAIHIFREIIKPAEKSLHEKLKQDKRFSTFLSLLEAADLKELLTQPGDWTLFVPTNDAFKGMTSEEKEILIRDKNALQNIILYHLTPGVFIGKGFEPGVTNILKTTQGSKIFLKEVNDTLLVNELKSKESDIMTTNGVIHVVDKLLYPADTPVGNDQLLEILNKLIKYIQIKFVRGSTFKEIPVTVYTTKIITKVVEPKIKVIEGSLQPIIKTEGPTLTKVKIEGEPEFRLIKEGETITEVIHGEPIIKKYTKIIDGVPVEITEKETREERIITGPEIKYTRISTGGGETEETLKKLLQEEVTKVTKFIEGGDGHLFEDEEIKRLLQGDTPVRKLQANKKVQGSRRRLREGRSQ
Effect of rPN on migration rate (MCF-7 cells [1]): had a higher migration rate than the untreated control with statistical significance | Effect of PN on survivin expression [2]: could increase phosphorylation of Akt and survivin expression in all BCA cells | Effect of rPN on proliferation (MDA-MB-231 cells [3]): significantly showed induction of cell proliferation | Combination index (CI) of PN (MDA-MB-231 cells [4]): 2.36 | Effect of rPN on migration rate (MDA-MB-231 cells [5]): had a higher migration rate than the untreated control with statistical significance | Combination index (CI) of PN (MCF-7 cells [6]): 1.39 | Effect of PN on Akt phosphorylation [7]: could increase phosphorylation of Akt | Effect of rPN on proliferation (MCF-7 cells [8]): could increase cell numbers
